Consider 11 molecules from US20180371066A1 (C2N DIAGNOSTICS, published 2018).

Sequences and labels used below:
B1: VH2/VK3 humanized anti-tau antibody (antibody, human IgG4 S228P, kappa)
heavy: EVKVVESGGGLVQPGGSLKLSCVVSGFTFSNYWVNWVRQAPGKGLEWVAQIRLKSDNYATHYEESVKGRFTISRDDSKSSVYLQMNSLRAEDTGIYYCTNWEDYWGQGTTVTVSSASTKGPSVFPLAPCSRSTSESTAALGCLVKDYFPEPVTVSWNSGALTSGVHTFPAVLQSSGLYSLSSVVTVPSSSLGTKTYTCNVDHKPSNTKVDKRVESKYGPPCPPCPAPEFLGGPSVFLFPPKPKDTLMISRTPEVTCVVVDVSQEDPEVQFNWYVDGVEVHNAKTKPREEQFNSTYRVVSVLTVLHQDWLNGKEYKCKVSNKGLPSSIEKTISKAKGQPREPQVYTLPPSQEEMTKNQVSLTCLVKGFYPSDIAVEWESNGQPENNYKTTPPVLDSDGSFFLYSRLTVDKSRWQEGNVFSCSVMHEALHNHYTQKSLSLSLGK
light: DIVLTQSPDSLAVSLGERATISCRASQSVSTSRYSYIHWYQQKPGQPPKLLIKYASNLESGVPSRFSGSGSGTDFTLTISSLQPEDFATYYCHHSWEIPLTFGQGTKLEIKRTVAAPSVFIFPPSDEQLKSGTASVVCLLNNFYPREAKVQWKVDNALQSGNSQESVTEQDSKDSTYSLSSTLTLSKADYEKHKVYACEVTHQGLSSPVTKSFNRGEC
notes: Humanized variant of HJ8.5
B2: VH2/VK2 humanized anti-tau antibody (antibody, human IgG4 S228P, kappa, V domains shown)
VH: EVKVVESGGGLVQPGGSLKLSCVVSGFTFSNYWVNWVRQAPGKGLEWVAQIRLKSDNYATHYEESVKGRFTISRDDSKSSVYLQMNSLRAEDTGIYYCTNWEDYWGQGTTVTVSS
VL: DIVLTQSPDSLAVSLGERATISCRASQSVSTSRYSYIHWYQQKPGQPPKLLIKYASNLESGVPSRFSGSGSGTDFTLNIHPLEPEDFATYYCHHSWEIPLTFGQGTKLEIKR
notes: Humanized variant of HJ8.5
B3: VH2/VK1 (antibody, human IgG4 S228P, kappa, V domains shown)
VH: B2 VH
VL: B2 VL with P84E
notes: humanized HJ8.5 variant, combination of VH2 and VK1
B4: VH1/VK1 (antibody, human IgG4 S228P, kappa, V domains shown)
VH: B2 VH with L18M, S87N, T93S
VL: B2 VL with P84E
notes: humanized HJ8.5 variant, combination of VH1 and VK1
B5: VH4/VK3 (antibody, human IgG4 S228P, kappa, V domains shown)
VH: B2 VH with K3Q, V4L, S79N, V81L, G94A
VL: B2 VL with N78T, H80S, P81S, E83Q
notes: humanized HJ8.5 variant, combination of VH4 and VK3
B6: VH3/VK2 humanized anti-tau antibody (antibody, human IgG4 S228P, kappa, V domains shown)
VH: B2 VH with K3Q, S79N, G94A
VL: B2 VL
notes: Humanized variant of HJ8.5
B7: VH2/VK4 (antibody, human IgG4 S228P, kappa)
heavy chain: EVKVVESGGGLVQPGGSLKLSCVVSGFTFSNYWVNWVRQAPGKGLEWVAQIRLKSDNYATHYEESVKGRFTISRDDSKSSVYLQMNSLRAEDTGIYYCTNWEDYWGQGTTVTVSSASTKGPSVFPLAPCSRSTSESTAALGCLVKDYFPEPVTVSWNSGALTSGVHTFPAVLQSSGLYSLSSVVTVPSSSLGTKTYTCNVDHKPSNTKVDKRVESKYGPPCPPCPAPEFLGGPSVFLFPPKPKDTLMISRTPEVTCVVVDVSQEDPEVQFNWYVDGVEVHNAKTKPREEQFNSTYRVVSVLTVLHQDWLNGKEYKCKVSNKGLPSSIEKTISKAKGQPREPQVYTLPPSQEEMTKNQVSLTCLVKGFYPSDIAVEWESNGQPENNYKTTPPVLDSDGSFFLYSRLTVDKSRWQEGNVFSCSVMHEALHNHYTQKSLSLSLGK
light chain: B1 light with L4M
notes: humanized HJ8.5 variant, combination of VH2 and VK4
B8: VH1/VK4 (antibody, human IgG4 S228P, kappa)
heavy chain: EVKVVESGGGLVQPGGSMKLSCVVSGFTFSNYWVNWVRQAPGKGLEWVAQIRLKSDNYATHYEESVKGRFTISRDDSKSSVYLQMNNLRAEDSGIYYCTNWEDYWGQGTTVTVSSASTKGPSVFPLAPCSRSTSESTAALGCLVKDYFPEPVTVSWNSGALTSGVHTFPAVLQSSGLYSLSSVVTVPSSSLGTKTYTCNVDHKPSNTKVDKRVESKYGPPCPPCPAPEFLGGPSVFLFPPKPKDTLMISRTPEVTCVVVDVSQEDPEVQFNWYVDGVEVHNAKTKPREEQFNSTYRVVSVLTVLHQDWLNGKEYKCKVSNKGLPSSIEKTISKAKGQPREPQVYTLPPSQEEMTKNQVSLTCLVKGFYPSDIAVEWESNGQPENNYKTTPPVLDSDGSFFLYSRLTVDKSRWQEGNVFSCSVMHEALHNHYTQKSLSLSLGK
light chain: B1 light with L4M
notes: humanized HJ8.5 variant, combination of VH1 and VK4
B9: VH3/VK1 (antibody, human IgG4 S228P, kappa, V domains shown)
VH: B2 VH with K3Q, S79N, G94A
VL: B2 VL with P84E
notes: humanized HJ8.5 variant, combination of VH3 and VK1
B10: VH3/VK4 (antibody, human IgG4 S228P, kappa)
heavy chain: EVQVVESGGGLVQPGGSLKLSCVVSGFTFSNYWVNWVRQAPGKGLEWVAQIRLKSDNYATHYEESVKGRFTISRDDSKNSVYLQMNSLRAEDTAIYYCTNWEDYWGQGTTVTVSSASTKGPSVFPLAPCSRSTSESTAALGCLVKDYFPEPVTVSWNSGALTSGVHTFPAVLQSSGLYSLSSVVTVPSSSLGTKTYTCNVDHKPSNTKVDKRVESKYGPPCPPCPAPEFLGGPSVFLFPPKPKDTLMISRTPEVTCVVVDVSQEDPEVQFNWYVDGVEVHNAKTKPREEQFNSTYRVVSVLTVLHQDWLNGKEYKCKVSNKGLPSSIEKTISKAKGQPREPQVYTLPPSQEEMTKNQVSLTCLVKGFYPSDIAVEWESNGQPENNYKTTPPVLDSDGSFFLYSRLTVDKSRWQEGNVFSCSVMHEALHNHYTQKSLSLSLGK
light chain: B1 light with L4M
notes: humanized HJ8.5 variant, combination of VH3 and VK4
B11: VH1/VK3 humanized anti-tau antibody (antibody, human IgG4 S228P, kappa)
heavy: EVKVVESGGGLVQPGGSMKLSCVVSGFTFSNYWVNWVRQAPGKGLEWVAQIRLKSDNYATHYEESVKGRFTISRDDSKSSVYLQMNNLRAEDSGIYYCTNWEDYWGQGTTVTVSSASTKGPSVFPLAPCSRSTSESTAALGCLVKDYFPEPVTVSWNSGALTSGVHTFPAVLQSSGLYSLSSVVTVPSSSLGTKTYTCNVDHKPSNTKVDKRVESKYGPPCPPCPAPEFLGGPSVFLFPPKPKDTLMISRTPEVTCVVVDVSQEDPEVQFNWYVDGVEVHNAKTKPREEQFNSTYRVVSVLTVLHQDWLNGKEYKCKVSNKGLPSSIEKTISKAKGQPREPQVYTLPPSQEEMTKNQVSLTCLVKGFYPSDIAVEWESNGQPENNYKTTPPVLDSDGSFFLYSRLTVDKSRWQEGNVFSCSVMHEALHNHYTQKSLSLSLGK
light: B1 light
notes: Humanized variant of HJ8.5

Where a chain is given by its changes, count along the chain named.

The target in the first assay is T1, recombinant human Tau-412 protein (human, UniProt P10636-7 1-412).
T1 construct: Analyte of the SPR study; also called human tau (1N4R, 412 amino acids)
T1 sequence (P10636 other isoform, or with tags, fused parts or gaps limits assumed): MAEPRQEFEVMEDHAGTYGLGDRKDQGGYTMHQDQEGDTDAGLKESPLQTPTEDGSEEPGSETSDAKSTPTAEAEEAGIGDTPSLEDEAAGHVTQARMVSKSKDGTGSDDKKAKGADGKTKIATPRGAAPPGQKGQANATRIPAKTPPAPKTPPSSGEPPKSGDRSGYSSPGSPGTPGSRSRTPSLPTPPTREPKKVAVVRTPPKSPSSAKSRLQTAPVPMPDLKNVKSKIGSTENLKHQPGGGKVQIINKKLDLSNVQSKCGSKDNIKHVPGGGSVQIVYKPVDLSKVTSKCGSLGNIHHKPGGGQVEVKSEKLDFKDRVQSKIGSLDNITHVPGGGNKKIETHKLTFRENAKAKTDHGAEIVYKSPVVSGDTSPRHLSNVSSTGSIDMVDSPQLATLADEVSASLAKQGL
The experiment in a line: SPR Biacore T200, Protein A capture, mean of the VH2/VK3 runs. As for the experimental part:
(§1) Kinetic data was obtained at a flow rate of 40 μL/min to minimize any potential mass transfer effects. Two repeats of the blank (no antigen) and the 2.5 nM concentration of the analyte were programmed into the kinetic run in order to check the stability of both the surface and analyte over the kinetic cycles. For the initial kinetic runs, 2-fold dilutions of Tau-412 from 40 nM to 0.156 nM were run. For kinetic analysis and on subsequent runs, an analyte range of 20 nM to 0.625 nM was selected. This range covered multiple analyte concentrations both above and below the reported KD.
(§2) The association phase was monitored for 500 seconds to allow some of the higher concentrations of analyte to reach steady state. In order to observe a sufficient signal decrease (>10%) during the dissociation phase of the kinetic cycle, dissociation was measured for 1200 seconds. As discussed in Section 5, the Fcs were allowed to stabilize for 600 seconds after each regeneration step. The signal from the reference channel Fc1 was subtracted from that of Fc2, Fc3 and Fc4.
(§3) The kinetic parameters for the interaction of Tau-412 with the 7 mAbs as measured using the Protein A capture system on the Biacore T200 are shown in Table F-2. To correct for differences in the capture level of the antibody between each binding cycle, a local Rₘₐₓ parameter was used in the 1-to-1 binding model. Kinetic analysis was performed in three independent runs using fresh preparations of Tau-412 and antibody. Run 1 and runs 2+3 used different vials of the antigen Tau-412; therefore the reported errors associated with the mean response probably represent variation in preparation of the analyte and differences in assay set-up and run. From run 1 to runs 2+3, the amount of antibody injected was adjusted to try to get closer to the target 300 RU capture levels.
In general, Kd refers to the constant that tells how readily two partners part at equilibrium. In general, koff refers to a measure of how fast the partners let go of each other. What is called kon is the rate constant with which the complex forms. Regarding B1, the Kd worked out at 2.13 nM, the koff turned out to be 0.000593 s⁻¹ and the kon amounted to 280000 M⁻¹ s⁻¹.

The target in a further assay is T2, human tau (human, UniProt P10636 2-60).
T2 construct: also called soluble human tau; human tau protein
T2 sequence (P10636 2-60 limits assumed): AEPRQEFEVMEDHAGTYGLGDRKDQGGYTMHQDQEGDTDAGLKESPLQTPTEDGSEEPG
The experiment in a line: competition ELISA on plate-coated human tau against biotinylated HJ8.5; IC50 normalised to chimeric HJ8.5; column C2N Run 1. On the technique in general: In an ELISA, binding on a coated surface is turned into a signal by an enzyme label.
Take B2: the “IC50 (Relative to Chimera)” value is 1.37 relative to Chimera.
For the molecule B1, the “IC50 (Relative to Chimera)” value is 1.17 relative to Chimera.
B3: the “IC50 (Relative to Chimera)” value is 1.43 relative to Chimera.
With B4, the “IC50 (Relative to Chimera)” value was 1.49 relative to Chimera.
For the molecule B5, the “IC50 (Relative to Chimera)” value was 1.79 relative to Chimera.
As for B6, the “IC50 (Relative to Chimera)” value is 0.81 relative to Chimera.
B7: the “IC50 (Relative to Chimera)” value is 1.36 relative to Chimera.
Consider B8, for which the “IC50 (Relative to Chimera)” value was 2.05 relative to Chimera.
Same read-out and setting: the result for B9 reads 1.16 relative to Chimera; that for B10, 0.89 relative to Chimera.

For a further assay, the target named is T1, recombinant human Tau-412 protein. Description: SPR Biacore T200, Protein A capture, mean of the VH1/VK3 runs. Here is the method: as §1, §2, §3
On the technique in general: Surface plasmon resonance follows binding to a sensor surface in real time, without labels.
For the molecule B11, the dissociation constant (Kd) came to 2.09 nM, the dissociation rate constant (koff) is 0.000599 s⁻¹ and the kon came to 287000 M⁻¹ s⁻¹.

The target of the next assay is T2, human tau. Description: competition ELISA on plate-coated human tau against biotinylated HJ8.5; IC50 normalised to chimeric HJ8.5; column C2N Run 2.
Take B2: the “IC50 (Relative to Chimera)” value was 0.85 relative to Chimera.
Consider B1, for which the “IC50 (Relative to Chimera)” value is 0.97 relative to Chimera.
B3: the “IC50 (Relative to Chimera)” value was 1.02 relative to Chimera.
In the case of B4, the “IC50 (Relative to Chimera)” value was 1.11 relative to Chimera.
Regarding B5, the “IC50 (Relative to Chimera)” value was 1.9 relative to Chimera.
Turning to B6, the “IC50 (Relative to Chimera)” value is 1.28 relative to Chimera.
On to B7, for which the “IC50 (Relative to Chimera)” value was 1.03 relative to Chimera.
Take B8: the “IC50 (Relative to Chimera)” value is 1.02 relative to Chimera.
For B9, the “IC50 (Relative to Chimera)” value was 1.42 relative to Chimera.
Consider B10, for which the “IC50 (Relative to Chimera)” value is 1.22 relative to Chimera.

A further assay addresses T1, recombinant human Tau-412 protein. Description: SPR Biacore T200, mAb captured on Protein A, Tau-412 analyte, 1-to-1 model, chip A11/2. Here is the method: as §1, §2, §3
For B2, the Kd stood at 2.06 nM, the koff is 0.000587 s⁻¹ and the kon was determined as 284000 M⁻¹ s⁻¹.
On to B1, for which the Kd stood at 1.83 nM, the koff was 0.000533 s⁻¹ and the kon was 292000 M⁻¹ s⁻¹.
For B6, the Kd was determined as 1.67 nM, the koff came out at 0.000485 s⁻¹ and the on-rate constant (kon) was determined as 290000 M⁻¹ s⁻¹.
The corresponding values for B11 are 1.94 nM, 0.000572 s⁻¹ and 295000 M⁻¹ s⁻¹.

The target in the next assay is T2, human tau. The experiment in a line: competition ELISA on plate-coated human tau against biotinylated HJ8.5; IC50 normalised to chimeric HJ8.5; column External.
On to B2, for which the “IC50 (Relative to Chimera)” value was 1.12 relative to Chimera.
Take B1: the “IC50 (Relative to Chimera)” value was 0.94 relative to Chimera.
Same read-out and setting: the result for B3 reads 1.02 relative to Chimera; that for B4, 0.84 relative to Chimera.
On the same count and under the same terms, the result for B5 reads 1.31 relative to Chimera; that for B6, 0.94 relative to Chimera.
Same read-out and setting: the result for B7 reads 1.37 relative to Chimera; that for B8, 1.41 relative to Chimera.
On to B9, for which the “IC50 (Relative to Chimera)” value was 1.04 relative to Chimera.
Regarding B10, the “IC50 (Relative to Chimera)” value was 1.51 relative to Chimera.

The next assay has as its target T1, recombinant human Tau-412 protein. The experiment in a line: SPR Biacore T200, Protein A capture, mean of the VH3/VK2 runs. Here is the method:
as §1, §2, §3
Turning to B6, the Kd amounted to 1.88 nM, the dissociation rate constant (koff) was determined as 0.000515 s⁻¹ and the kon was 276000 M⁻¹ s⁻¹.

For another assay the target is unchanged. Description: SPR Biacore T200, mAb captured on Protein A, Tau-412 analyte, 1-to-1 model, chip A11/1. Here is the method:
as §1, §2, §3
Turning to B2, the dissociation constant Kd is 2.4 nM, the koff amounted to 0.000628 s⁻¹ and the kon amounted to 262000 M⁻¹ s⁻¹.
In the case of B1, the dissociation constant (Kd) came to 2.44 nM, the koff was 0.000653 s⁻¹ and the kon amounted to 268000 M⁻¹ s⁻¹.
B6: the Kd worked out at 2.08 nM, the koff was 0.000546 s⁻¹ and the kon was 262000 M⁻¹ s⁻¹.
As for B11, the Kd came out at 2.24 nM, the koff was 0.000626 s⁻¹ and the kon was found to be 280000 M⁻¹ s⁻¹.

A further assay has the same target. Description: SPR Biacore T200, Protein A capture, mean of the VH2/VK2 runs. Here is the method: as §1, §2, §3
For B2, the Kd was found to be 2.23 nM, the koff was found to be 0.000608 s⁻¹ and the kon stood at 273000 M⁻¹ s⁻¹.
